Drawing on publication PMC8550791, this text covers Km of steady-state kinetics of cleavage of fluorescently labeled K48-linked pentaUb, against MINDY1 WT for one substance.

The target of the assay is K48-linked pentaubiquitin (UniProt P0CG48).

Consider “MINDY1 P138A (residues 110-384) (from UniProt Q8N5J2 110-384) (domain or fragment)”, for which the Km of steady-state kinetics of cleavage of fluorescently labeled K48-linked pentaUb, against MINDY1 WT turned out to be 3 fold lower.
